Experimental data taken from patent US11802878B2, “Protein sequencing method and reagents” (The Governing Council of the University of Toronto, priority 2009, dated 2023).
“Also recorded” adds a separate entry of the source. Residues, ends and D or L forms follow the SMILES beside them.

Columns and labels:
ClpS variant W1 = target: T1, ClpS variant W1 (Escherichia coli, UniProt P0A8Q6, L99A/M40A/M62C/P98A/V43C/V65A); assay: Competitive phage ELISA, non-biotinylated peptide competitors against immobilized Wpep; format: binding, E. coli; conditions: FIG. 13 legend; result in words
T1 construct: ST2 secretion signal (N, cleaved yes); made in house; host or cells: M13 phage display, amplified in E. coli XL1Blue with helper phage M13K07
Protocol: Error bars represent 95% confidence intervals (n=2).
Each phage pool was then briefly incubated in wells of a microtitre plate with Wpep ([sequence](biotin)) immobilized on neutravidin. Non-binding phage were washed away, and retained phage were detected using an enzymatically-labeled antibody against the filamentous phage particle and an appropriate colorimetric substrate. The value for W1 binding to neutravidin alone was subtracted from the binding signal from every well to correct for non-specific binding. The ELISA values were then expressed as proportions, relative to the maximum ELISA signal in absence of competitor. Error bars represent 95% confidence intervals (n=2).

[1] = system: immobilized biotinylated peptide, N-terminal amino acid W (X-SDGMFTAGSLIGK(biotin)); assay: Phage ELISA, binding to immobilized peptide, N-terminal W; conditions: N-terminal W; phage 1X; sub Fab
Protocol: (§1) Given the discovery that the specificity pocket library was functionally robust, selections against synthetic peptide ligands were carried out using this library. The specificity pocket library was selected against 20 biotinylated peptides, each with a different N-terminal residue atop a common leader sequence (X-SDGMFTAGSLIGK(biotin)) (SEQ ID NO: 4). The peptides were immobilized individually to the bottom wells of a microtiter plate. […] Consequently, ClpS mutant variants that prefer other residues in addition to the ligand ‘bait’ would bind those competing peptides in solution and simply be washed away. Only selective variants that bound to the immobilized target(s) were amplified during each subsequent round of selection.
(§2) To evaluate the specificity and selectivity of individual clones, both wild-type ClpS and the selected variants' binding to each of the biotinylated peptides independently were tested. The same approach was also used to monitor the progress of the selections and to prioritize particular pools of phage for further investigation.
(§3) Promising single clones were picked from the selection pools and their specificity was evaluated using the same panel of biotinylated peptides and various amounts of phage supernatant. […] Accordingly, Variant 1 represents a selective N-terminal amino acid capture probe for tryptophan useful for the sequencing methods described herein. Variant 1 also represents a useful scaffold for performing further generation and selection of variants with desirable properties for use as additional N-terminal amino acid capture probes.
(§4) The selection and ELISA protocols are very similar. Briefly, each well of a 96-well Maxisorp plate was coated overnight at 4° C. with 100 μl of 10 μg/ml neutravidin in PBS, or 1:500 dilution of anti-FLAG antibody. […]
(§5) For the ELISA readouts, 100 μl of pH adjusted phage supernatant or polyethylene glycol (PEG) precipitated concentrated phage was added to appropriate wells and allowed to bind for 1 hour at 4° C. […] The reaction was stopped by addition of 90 μl of 1M H3PO4 and the absorbance at A450 nm was read.

[2] = system: panel of 20 biotinylated peptides, each with a different N-terminal residue (X-SDGMFTAGSLIGK(biotin)); assay: Phage ELISA specificity profile over the panel of biotinylated peptides; format: binding; conditions: phage displayed; result in words; listed as ClpS Variant 1
Protocol: as §1
To evaluate the specificity and selectivity of individual clones, both wild-type ClpS and the selected variants' binding to each of the biotinylated peptides independently were tested. […]
Promising single clones were picked from the selection pools and their specificity was evaluated using the same panel of biotinylated peptides and various amounts of phage supernatant. […]
as §5

[3] = system: immobilized biotinylated peptide, N-terminal amino acid E (X-SDGMFTAGSLIGK(biotin)); assay: Phage ELISA, binding to immobilized peptide, N-terminal E; conditions: N-terminal E; phage 1X; sub Fab
Protocol: as §1, §2, §3, §4, §5

[4] = system: immobilized biotinylated peptide, N-terminal amino acid L (X-SDGMFTAGSLIGK(biotin)); assay: Phage ELISA, binding to immobilized peptide, N-terminal L; conditions: N-terminal L; phage 1X; sub Fab
Protocol: as §1, §2, §3, §4, §5

[5] = system: immobilized biotinylated peptide, N-terminal amino acid R (X-SDGMFTAGSLIGK(biotin)); assay: Phage ELISA, binding to immobilized peptide, N-terminal R; conditions: N-terminal R; phage 1X; sub Fab
Protocol: as §1, §2, §3, §4, §5

[6] = system: immobilized biotinylated peptide, N-terminal amino acid V (X-SDGMFTAGSLIGK(biotin)); assay: Phage ELISA, binding to immobilized peptide, N-terminal V; conditions: N-terminal V; phage 1X; sub Fab
Protocol: as §1, §2, §3, §4, §5

[7] = system: immobilized biotinylated peptide, N-terminal amino acid D (X-SDGMFTAGSLIGK(biotin)); assay: Phage ELISA, binding to immobilized peptide, N-terminal D; conditions: N-terminal D; phage 1X; sub Fab
Protocol: as §1, §2, §3, §4, §5

[8] = system: immobilized biotinylated peptide, N-terminal amino acid F (X-SDGMFTAGSLIGK(biotin)); assay: Phage ELISA, binding to immobilized peptide, N-terminal F; conditions: N-terminal F; phage 1X; sub Fab
Protocol: as §1, §2, §3, §4, §5

[9] = system: immobilized biotinylated peptide, N-terminal amino acid N (X-SDGMFTAGSLIGK(biotin)); assay: Phage ELISA, binding to immobilized peptide, N-terminal N; conditions: N-terminal N; phage 1X; sub Fab
Protocol: as §1, §2, §3, §4, §5

[10] = system: immobilized biotinylated peptide, N-terminal amino acid I (X-SDGMFTAGSLIGK(biotin)); assay: Phage ELISA, binding to immobilized peptide, N-terminal I; conditions: N-terminal I; phage 1X; sub Fab
Protocol: as §1, §2, §3, §4, §5

[11] = system: immobilized biotinylated peptide, N-terminal amino acid G (X-SDGMFTAGSLIGK(biotin)); assay: Phage ELISA, binding to immobilized peptide, N-terminal G; conditions: N-terminal G; phage 1X; sub Fab
Protocol: as §1, §2, §3, §4, §5

[12] = system: immobilized biotinylated peptide, N-terminal amino acid A (X-SDGMFTAGSLIGK(biotin)); assay: Phage ELISA, binding to immobilized peptide, N-terminal A; conditions: N-terminal A; phage 1X; sub Fab
Protocol: as §1, §2, §3, §4, §5

[13] = system: immobilized biotinylated peptide, N-terminal amino acid Q (X-SDGMFTAGSLIGK(biotin)); assay: Phage ELISA, binding to immobilized peptide, N-terminal Q; conditions: N-terminal Q; phage 1X; sub Fab
Protocol: as §1, §2, §3, §4, §5

[14] = system: immobilized biotinylated peptide, N-terminal amino acid C (X-SDGMFTAGSLIGK(biotin)); assay: Phage ELISA, binding to immobilized peptide, N-terminal C; conditions: N-terminal C; phage 1X; sub Fab
Protocol: as §1, §2, §3, §4, §5

[15] = system: immobilized biotinylated peptide, N-terminal amino acid P (X-SDGMFTAGSLIGK(biotin)); assay: Phage ELISA, binding to immobilized peptide, N-terminal P; conditions: N-terminal P; phage 1X; sub Fab
Protocol: as §1, §2, §3, §4, §5

[16] = system: immobilized biotinylated peptide, N-terminal amino acid Y (X-SDGMFTAGSLIGK(biotin)); assay: Phage ELISA, binding to immobilized peptide, N-terminal Y; conditions: N-terminal Y; phage 1X; sub Fab
Protocol: as §1, §2, §3, §4, §5

[17] = system: immobilized biotinylated peptide, N-terminal amino acid S (X-SDGMFTAGSLIGK(biotin)); assay: Phage ELISA, binding to immobilized peptide, N-terminal S; conditions: N-terminal S; phage 1X; sub Fab
Protocol: as §1, §2, §3, §4, §5

[18] = system: immobilized biotinylated peptide, N-terminal amino acid M (X-SDGMFTAGSLIGK(biotin)); assay: Phage ELISA, binding to immobilized peptide, N-terminal M; conditions: N-terminal M; phage 1X; sub Fab
Protocol: as §1, §2, §3, §4, §5

[19] = system: immobilized biotinylated peptide, N-terminal amino acid T (X-SDGMFTAGSLIGK(biotin)); assay: Phage ELISA, binding to immobilized peptide, N-terminal T; conditions: N-terminal T; phage 1X; sub Fab
Protocol: as §1, §2, §3, §4, §5

[20] = system: immobilized biotinylated peptide, N-terminal amino acid H (X-SDGMFTAGSLIGK(biotin)); assay: Phage ELISA, binding to immobilized peptide, N-terminal H; conditions: N-terminal H; phage 1X; sub Fab
Protocol: as §1, §2, §3, §4, §5

[21] = system: immobilized biotinylated peptide, N-terminal amino acid K (X-SDGMFTAGSLIGK(biotin)); assay: Phage ELISA, binding to immobilized peptide, N-terminal K; conditions: N-terminal K; phage 1X; sub Fab
Protocol: as §1, §2, §3, §4, §5

CC[C@H](C)[C@H](NC(=O)[C@H](CC(C)C)NC(=O)[C@H](CO)NC(=O)CNC(=O)[C@H](C)NC(=O)[C@@H](NC(=O)[C@H](Cc1ccccc1)NC(=O)[C@H](CCSC)NC(=O)CNC(=O)[C@H](CC(=O)O)NC(=O)[C@H](CO)NC(=O)[C@@H](N)Cc1c[nH]c2ccccc12)[C@@H](C)O)C(=O)O [Wpep] (H-WSDGMFTAGSLI-OH; N-terminus and C-terminus assumed) was tested, and the “effective competitor for binding ClpS Variant 1” value (ClpS variant W1) was “effective competitor”.

B1: Variant 1: engineered ClpS variant, SEQ ID NO: 2, binds N-terminal tryptophan selectively (protein)
chain: KPPSMYKVILVNDDYTPAEFCIDVLQKFFSYDVERATQLCLAAHYQGKAICGVFTAEVAETKVAMVNKYARENEHAALCTLEKA
For B1, the “phage ELISA binding signal” value [1] was 2.636, the “binding specificity / preference for N-terminal amino acids” value [2] was “selectively binds polypeptides with the N-terminal amino acid tryptophan; also recorded: bound specifically to tryptophan alone; also recorded: selectively binds tryptophan N-terminal amino acids” and the “phage ELISA binding signal” value [3] was 0.032. The “phage ELISA binding signal” value [4] was 0.069, the “phage ELISA binding signal” value [5] was 0.04 and the “phage ELISA binding signal” value [6] was 0.032. The “phage ELISA binding signal” value [7] was −0.017, the “phage ELISA binding signal” value [8] was 0.083 and the “phage ELISA binding signal” value [9] was 0.052. For the same molecule, the “phage ELISA binding signal” value [10] was −0.023, the “phage ELISA binding signal” value [11] was 0.028 and the “phage ELISA binding signal” value [12] was 0.018. For the same molecule, the “phage ELISA binding signal” value [13] was 0.065, the “phage ELISA binding signal” value [14] was 0.066 and the “phage ELISA binding signal” value [15] was 0.062. For the same molecule, the “phage ELISA binding signal” value [16] was 0.045, the “phage ELISA binding signal” value [17] was −0.001 and the “phage ELISA binding signal” value [18] was −0.003. For the same molecule, the “phage ELISA binding signal” value [19] was −0.005, the “phage ELISA binding signal” value [20] was −0.001 and the “phage ELISA binding signal” value [21] was 0.129.
